From PMC12422189, “Molecular exaptation by the integrin αI domain” (Science Advances, 2025)
Each block holds one molecule with its values, some of them ahead of it.

Columns and labels:
[1] = biological target: integrin αLβ2 with the αL internal ligand IEGT replaced by VDGT (UniProt P20701); test: flow cytometry on cells; HEK293T cells transfected with αL variants and β2; 20 mM tris-HCl pH 7.4, 150 mM NaCl, 1 mM MgCl2 + 1 mM MnCl2; purified His-tagged ICAM-1 ectodomain at 20 μg/ml, 1 hour at 37°C; read with iFluor 647 anti-His tag antibody; percent positive cells normalized to wild type
[2] = biological target: T1, Fc-tagged E-cadherin ectodomain (UniProt P12830 155-698); test: BLI; Octet RED, 25°C; Fc-tagged E-cadherin ectodomain loaded on Protein A biosensors; αEβ7 in solution, two-fold series 500 to 16.125 nM; activating buffer with 0.1% BSA and 0.02% Tween 20; 1:1 model, global fit of three replicates; conditions: both partners purified
T1 construct: Fc tag amplified from Addgene plasmid 145164; E-cadherin insert a gift from B. Gumbiner; Captured on Protein A biosensors by the Fc; also called Human Fc-tagged E-cadherin ectodomain; source: ExpiCHO, secreted, purified (HiTrap Protein G, Superdex 200); not shown: Fc (human), C-terminal, kept
T1 sequence (looked up): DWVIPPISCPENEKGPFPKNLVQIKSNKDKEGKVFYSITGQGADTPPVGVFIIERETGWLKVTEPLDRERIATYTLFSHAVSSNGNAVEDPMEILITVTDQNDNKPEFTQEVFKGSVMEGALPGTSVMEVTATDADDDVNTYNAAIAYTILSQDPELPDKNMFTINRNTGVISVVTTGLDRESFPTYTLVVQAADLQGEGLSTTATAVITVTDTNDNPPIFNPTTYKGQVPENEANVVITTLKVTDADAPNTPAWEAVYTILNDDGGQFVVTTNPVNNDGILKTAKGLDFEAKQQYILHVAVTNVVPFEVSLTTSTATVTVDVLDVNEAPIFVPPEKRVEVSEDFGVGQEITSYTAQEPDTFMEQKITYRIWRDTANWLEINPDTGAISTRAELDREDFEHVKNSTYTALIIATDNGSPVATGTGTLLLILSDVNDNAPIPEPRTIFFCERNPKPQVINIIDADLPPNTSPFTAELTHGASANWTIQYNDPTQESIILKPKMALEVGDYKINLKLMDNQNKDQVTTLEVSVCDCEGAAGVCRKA

Chain of integrin αLβ2 with the αL internal ligand IEGT replaced by VDGT (P20701 26-1170, chain 1 of 2): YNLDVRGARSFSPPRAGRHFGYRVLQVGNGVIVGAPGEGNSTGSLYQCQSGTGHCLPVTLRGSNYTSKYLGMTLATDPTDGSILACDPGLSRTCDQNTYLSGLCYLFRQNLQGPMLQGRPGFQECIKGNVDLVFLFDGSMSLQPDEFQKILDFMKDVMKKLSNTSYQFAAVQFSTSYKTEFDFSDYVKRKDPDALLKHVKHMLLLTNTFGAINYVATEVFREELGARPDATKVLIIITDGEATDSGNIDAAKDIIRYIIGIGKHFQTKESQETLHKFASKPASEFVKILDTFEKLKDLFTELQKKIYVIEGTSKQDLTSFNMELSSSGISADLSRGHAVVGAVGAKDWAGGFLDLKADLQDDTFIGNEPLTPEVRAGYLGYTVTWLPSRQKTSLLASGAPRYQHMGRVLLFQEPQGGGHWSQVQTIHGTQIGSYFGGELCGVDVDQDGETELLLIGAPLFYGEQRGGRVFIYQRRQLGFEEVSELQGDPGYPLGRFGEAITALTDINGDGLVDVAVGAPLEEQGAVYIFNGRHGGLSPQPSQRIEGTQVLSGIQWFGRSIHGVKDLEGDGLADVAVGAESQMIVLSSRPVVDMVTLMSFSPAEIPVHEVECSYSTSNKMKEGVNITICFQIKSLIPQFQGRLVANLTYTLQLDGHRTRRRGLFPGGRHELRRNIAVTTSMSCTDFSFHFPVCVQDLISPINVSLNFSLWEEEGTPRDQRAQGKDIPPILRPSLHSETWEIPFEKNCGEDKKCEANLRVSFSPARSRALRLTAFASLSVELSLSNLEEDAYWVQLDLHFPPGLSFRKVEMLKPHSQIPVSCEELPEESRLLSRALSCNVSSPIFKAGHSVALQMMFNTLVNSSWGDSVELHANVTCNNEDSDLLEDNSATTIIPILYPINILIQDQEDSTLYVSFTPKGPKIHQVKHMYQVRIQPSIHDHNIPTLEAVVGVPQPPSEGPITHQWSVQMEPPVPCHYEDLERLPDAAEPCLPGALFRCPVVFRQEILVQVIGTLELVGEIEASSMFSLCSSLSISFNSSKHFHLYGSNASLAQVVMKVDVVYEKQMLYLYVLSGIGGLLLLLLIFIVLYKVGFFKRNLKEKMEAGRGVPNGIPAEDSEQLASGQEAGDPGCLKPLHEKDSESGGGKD
Chain of integrin αLβ2 with the αL internal ligand IEGT replaced by VDGT (P05107 23-769, chain 2 of 2, further chain): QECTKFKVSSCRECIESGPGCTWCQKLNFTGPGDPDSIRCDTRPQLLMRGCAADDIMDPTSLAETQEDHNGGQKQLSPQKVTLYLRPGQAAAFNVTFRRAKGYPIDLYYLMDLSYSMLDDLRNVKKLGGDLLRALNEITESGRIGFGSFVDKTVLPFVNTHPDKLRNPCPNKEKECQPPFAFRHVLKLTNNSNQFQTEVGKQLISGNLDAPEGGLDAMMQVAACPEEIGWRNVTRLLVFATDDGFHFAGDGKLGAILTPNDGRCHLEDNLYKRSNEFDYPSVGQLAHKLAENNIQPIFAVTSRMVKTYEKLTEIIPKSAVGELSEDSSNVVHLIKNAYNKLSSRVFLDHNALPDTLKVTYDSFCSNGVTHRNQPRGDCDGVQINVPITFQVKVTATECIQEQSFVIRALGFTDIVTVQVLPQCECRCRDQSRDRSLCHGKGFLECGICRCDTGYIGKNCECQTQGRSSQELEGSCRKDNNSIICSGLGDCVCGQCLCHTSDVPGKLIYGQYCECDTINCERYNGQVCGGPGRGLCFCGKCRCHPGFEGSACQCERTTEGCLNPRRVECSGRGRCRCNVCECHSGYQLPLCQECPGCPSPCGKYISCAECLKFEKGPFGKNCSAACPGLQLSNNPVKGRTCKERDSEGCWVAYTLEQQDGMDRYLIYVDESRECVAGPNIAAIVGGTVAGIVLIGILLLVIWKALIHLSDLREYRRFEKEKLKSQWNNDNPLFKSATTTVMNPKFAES

ligand binding, percent of wild type [1]: 60%
Molecule: intercellular adhesion molecule-1 (ICAM-1) ectodomain, His-tagged (from UniProt P05362 28-480) (ligand)

Kd [2]: 51 ± 7.9 nM
B1: integrin αEβ7 (as used for biolayer interferometry) (complex)
chain 1: FNVDVARPWLTPKGGAPFVLSSLLHQDPSTNQTWLLVTSPRTKRTPGPLHRCSLVQDEILCHPVEHVPIPKGRHRGVTVVRSHHGVLICIQVLVRRPHSLSSELTGTCSLLGPDLRPQAQANFFDLENLLDPDARVDTGDCYSNKEGGGEDDVNTARQRRALEKEEEEDKEEEEDEEEEEAGTEIAIILDGSGSIDPPDFQRAKDFISNMMRNFYEKCFECNFALVQYGGVIQTEFDLRDSQDVMASLARVQNITQVGSVTKTASAMQHVLDSIFTSSHGSRRKASKVMVVLTDGGIFEDPLNLTTVINSPKMQGVERFAIGVGEEFKSARTARELNLIASDPDETHAFKVTNYMALDGLLSKLRYNIISMEGTVGDALHYQLAQIGFSAQILDERQVLLGAVGAFDWSGGALLYDTRSRRGRFLNQTAAAAADAEAAQYSYLGYAVAVLHKTCSLSYIAGAPRYKHHGAVFELQKEGREASFLPVLEGEQMGSYFGSELCPVDIDMDGSTDFLLVAAPFYHVHGEEGRVYVYRLSEQDGSFSLARILSGHPGFTNARFGFAMAAMGDLSQDKLTDVAIGAPLEGFGADDGASFGSVYIYNGHWDGLSASPSQRIRASTVAPGLQYFGMSMAGGFDISGDGLADITVGTLGQAVVFRSRPVVRLKVSMAFTPSALPIGFNGVVNVRLCFEISSVTTASESGLREALLNFTLDVDVGKQRRRLQCSDVRSCLGCLREWSSGSQLCEDLLLMPTEGELCEEDCFSNASVKVSYQLQTPEGQTDHPQPILDRYTEPFAIFQLPYEKACKNKLFCVAELQLATTVSQQELVVGLTKELTLNINLTNSGEDSYMTSMALNYPRNLQLKRMQKPPSPNIQCDDPQPVASVLIMNCRIGHPVLKRSSAHVSVVWQLEENAFPNRTADITVTVTNSNERRSLANETHTLQFRHGFVAVLSKPSIMYVNTGQGLSHHKEFLFHVHGENLFGAEYQLQICVPTKLRGLQVVAVKKLTRTQASTVCTWSQERACAYSSVQHVEEWHSVSCVIASDKENVTVAAEISWDHSEELLKDVTELQILGEISFNKSLYEGLNAENHRTKITVVFLKDEKYH
chain 2: ELDAKIPSTGDATEWRNPHLSMLGSCQPAPSCQKCILSHPSCAWCKQLNFTASGEAEARRCARREELLARGCPLEELEEPRGQQEVLQDQPLSQGARGEGATQLAPQRVRVTLRPGEPQQLQVRFLRAEGYPVDLYYLMDLSYSMKDDLERVRQLGHALLVRLQEVTHSVRIGFGSFVDKTVLPFVSTVPSKLRHPCPTRLERCQSPFSFHHVLSLTGDAQAFEREVGRQSVSGNLDSPEGGFDAILQAALCQEQIGWRNVSRLLVFTSDDTFHTAGDGKLGGIFMPSDGHCHLDSNGLYSRSTEFDYPSVGQVAQALSAANIQPIFAVTSAALPVYQELSKLIPKSAVGELSEDSSNVVQLIMDAYNSLSSTVTLEHSSLPPGVHISYESQCEGPEKREGKAEDRGQCNHVRINQTVTFWVSLQATHCLPEPHLLRLRALGFSEELIVELHTLCDCNCSDTQPQAPHCSDGQGHLQCGVCSCAPGRLGRLCECSVAELSSPDLESGCRAPNGTGPLCSGKGHCQCGRCSCSGQSSGHLCECDDASCERHEGILCGGFGRCQCGVCHCHANRTGRACECSGDMDSCISPEGGLCSGHGRCKCNRCQCLDGYYGALCDQCPGCKTPCERHRDCAECGAFRTGPLATNCSTACAHTNVTLALAPILDDGWCKERTLDNQLFFFLVEDDARGTVVLRVRPQEKGADH
modifications: Wild-type αE taken for BLI: the paper assigns wild-type to the E-cadherin complex and RRtoGG (R177G/R178G) only to the Fab complex; the BLI section does not state which was used. Signal peptides …
